Data published in the supplement of paper PMC7877785.
± gives the uncertainty stated by the source.

Test: self-splicing fitness, log relative to wild type (ln ratio); higher = more splicing; Tetrahymena group I intron in knt gene, E. coli kanamycin selection, DiMSum; sequences stand for … in CUCUCU…GGAGGGAAAAGUUAUCAGGCAUGCACCUGGUAGCUAGUCUUUAAACCAAUAGAUUGCAUCGGUUUAAAAGGCAAGACCGUCAAAUUGCGGGAAAGGGGUCAACAGCCGUUCAGUACCAAGUCUCAGGGGAAACUUUGAGAUGGCCUUGCAAAGGGUAUGGUAAUAAGCUGACGGACAUGGUCCUAACCACGCAGCCAAGUCCUAAGUCAACAGAUCUUCUGUUGAUAUGGAUGCAGUUCACAGACUAAAUGUCGGUCGGGGAAGAUGUAUUCUUCUCAUAAGAUAUAGUCGGACCUCUCCUUAAUGGGAGCUAGCGGAUGAAGUGAUGCAACACUGGAGCCGCUGGGAACUAAUUUGUAUGCGAAAGUAUAUUGAUUAGUUUUGGAGUACUCGUGGUCG
Method in brief: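 DiMSum derived fitness as the error-weighted combination of fold changes across replicates, kanamycin versus no kanamycin, normalised to wild type. E. coli BL21(DE3) held the library, which randomised all eight P1ex-region intron nucleotides within the knt kanamycin-resistance gene on pET-22b(+). Six replicate transformations grew overnight at 37°C or 30°C on LB agar with or without 25 μg/mL kanamycin, also containing 100 μg/mL carbenicillin, 50 μM IPTG and 0.2% rhamnose, and pooled colonies were amplicon-sequenced on an Illumina HiSeq 2500.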

Sequence	self-splicing fitness (ln) (30 °C)	self-splicing fitness (ln) (37 °C)
AAUUAGCAAUAUUACGGGGA	-2.98 ± 0.27	-2.07 ± 0.26
AAUUAGCAAUAUUACGGUCC	-0.652 ± 0.12	0.122 ± 0.15
AAUUAGCAAUAUUACGUAGG	-2.69 ± 0.12	-1.96 ± 0.18
AAUUAGCAAUAUUACGUAUA	-1.83 ± 0.28	-1.32 ± 0.38
AAUUAGCAAUAUUACGUGGA	-3.12 ± 0.2	-2.27 ± 0.17
AAUUAGCAAUAUUACGUGGC	-3.39 ± 0.2	-1.96 ± 0.24
AAUUAGCAAUAUUACGUGUG	-2.11 ± 0.11	-0.784 ± 0.096
ACAAAGCAAUAUUACGACGA	-0.436 ± 0.063	-0.207 ± 0.062
ACAAAGCAAUAUUACGAUAA	-1.38 ± 0.086	-1 ± 0.1
ACAAAGCAAUAUUACGAUGG	-1.44 ± 0.08	-0.402 ± 0.1
ACAAAGCAAUAUUACGCAGG	-1.47 ± 0.064	-1.21 ± 0.08
ACAAAGCAAUAUUACGCCAG	-1.94 ± 0.13	-1.11 ± 0.16
ACAAAGCAAUAUUACGCCGG	-0.52 ± 0.065	-0.282 ± 0.083
ACAAAGCAAUAUUACGCUUG	-1.62 ± 0.057	-0.984 ± 0.079
ACAAAGCAAUAUUACGGACA	-1.29 ± 0.13	-0.782 ± 0.11
ACAAAGCAAUAUUACGGACG	-0.851 ± 0.045	-0.124 ± 0.065
ACAAAGCAAUAUUACGGGUU	-2.54 ± 0.087	-1.23 ± 0.09
ACAAAGCAAUAUUACGGUAC	-3.33 ± 0.13	-2.3 ± 0.15
ACAAAGCAAUAUUACGGUAU	-3.56 ± 0.13	-1.35 ± 0.099
ACAAAGCAAUAUUACGGUCG	-1.24 ± 0.055	-0.228 ± 0.08
ACAAAGCAAUAUUACGGUGU	-3.29 ± 0.14	-2.81 ± 0.15
ACAAAGCAAUAUUACGUCCU	-0.488 ± 0.07	-0.399 ± 0.08
ACACAGCAAUAUUACGAAAA	-3.2 ± 0.19	-3 ± 0.19
